T1: human CLL1 ECD (65-265) (human, UniProt Q5QGZ9 65-265)
T1 construct: Expressed in 293-F cells and purified by IMAC; also called huCLL1; recombinant human CLL1 protein
T1 sequence: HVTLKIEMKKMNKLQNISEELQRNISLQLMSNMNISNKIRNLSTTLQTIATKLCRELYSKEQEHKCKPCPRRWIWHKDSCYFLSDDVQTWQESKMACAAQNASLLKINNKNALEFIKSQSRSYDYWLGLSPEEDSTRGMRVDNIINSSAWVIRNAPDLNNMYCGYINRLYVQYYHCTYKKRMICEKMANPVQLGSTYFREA

T2: cynomolgus monkey CLL1 ECD (65-265) (cynomolgus monkey)
T2 construct: Expressed in 293-F cells and purified by IMAC; also called cynoCLL1; recombinant cynomolgus monkey CLL1 protein
T2 chain: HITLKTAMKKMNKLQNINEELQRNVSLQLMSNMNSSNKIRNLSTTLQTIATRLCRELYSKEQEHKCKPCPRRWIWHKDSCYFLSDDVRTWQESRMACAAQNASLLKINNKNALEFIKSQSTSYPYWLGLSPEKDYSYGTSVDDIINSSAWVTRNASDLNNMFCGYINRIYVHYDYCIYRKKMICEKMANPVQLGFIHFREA

B1: AS82718 sdAb (VHH)
VHH: QVQLAESGGGLVQTGGSLRLSCTASGLNFGLYAMGWFRQAPGKEREGVSCINGGGGITVYSDFVKSRFTISRDNAKNTLYLQMNSLKPDDTATYYCAADRSPFGSCSSDWSRSSDWSRMAEKFGYWGQGTQVTVSS
notes: Camel sdAb tested as E. coli culture supernatant; not shown: C-terminal His-tag encoded by the soluble expression vector
B2: AS83457 sdAb (VHH)
VHH: QVQLVESGGGLVQPGGSLRLSCAASGFFFSIYDMNWFRQAPGKGLEWVSGITGNGYTTAYADSVKGRFTISRDNAKNTLYLQLNSLKSEDTAMYYCAQGSNRGRGTQVTVSS
notes: as for B1
B3: AS82494 sdAb (VHH)
VHH: QVQLVESGGGLVQPGGSLRLSCAASGFTFSVYDMNWFRQAPGKGLEWVSGITGNGYTTSYADSVKGRFTISRDNAKNTLYLQLNSLKSEDTAMYYCAKETNRGQGTQVTVSS
notes: as for B1
B4: AS83010 sdAb (VHH)
VHH: QVQLVESGGGLVQPGGSLRLSCVASGFFFSAYDMNWFRQAPGKGLEWVSGITGNGYTTAYADSVKGRFTISRDNAKNTLYLQLNSLKSEDTAMYYCTEGDNRGQGTQVTVSS
notes: as for B1
B5: AS83431 sdAb (VHH)
VHH: QVRLVESGGGSVQSGGSLRLSCAASGYARSSTCLGWFRQAPGKEVEGVAIIGRDGSTGYADSVKGRFTISQDNAKNTLYLHMDSLKPEDTAMYYCAAVEGGCEVSEGTGEQQLAYWGQGTQVTVSS
notes: as for B1
B6: AS83791 sdAb (VHH)
VHH: QVKLVESGGGLVQPGGSLRLSCVASGFAFSSADMSWVRQAPGKGVEAVSVINRDGASTYYADSVKGRFTISRDNAKSTLYLQMNSLKPEDTAMYHCAVVPENEYESGSYNYWGQGTQVTVSS
notes: Tested as E. coli culture supernatant; not shown: C-terminal His-tag encoded by the soluble expression vector
B7: AS82480 sdAb (VHH)
VHH: EVQLVESGGGSVQAGGSLRLSCAASGVTYSSACMGWFRQAPGKGREVVAVLYAGGSTTHYASSVKERFTISQDNAKNTVYLQMNSLKPEDTAVYYCAAALGDRSSCEWRYWGQGTQVTVSS
notes: as for B1
B8: AS82544 sdAb (VHH)
VHH: EVQLVESGGALVQPGGSLRLSCTASGFLFRVYDMNWVRQAPGKGVEWIVGITNNGYTTAYADSVKGRFTISRDNTENTLFLQMNSLKPEDTAMYYCQTDNGRVRGQGTQVTVSS
notes: as for B1
B9: AS82658 sdAb (VHH)
VHH: QVQLVESGGGSVQAGGALSLSCAASGYTVRIDYMGWYRQTPGKGREPVATIASNGGTAYADSVEGRFTISQDNAKNSVYLQMNTLKPGDTAMYYCAAGTWPTLTYFGQGTQVTVSS
notes: as for B1
B10: AS83309 sdAb (VHH)
VHH: EVQLVESGGDLVRPGGSLRLSCAASGFTFSIYDMNWVRQAPGKGLEWVAGISGNGYSTSYAESVKGRFTISKDNAKNTVYLQLSSLKFEDTAMYYCVRGGEKWDENDLRRKGQGTQVTVSS
notes: as for B1
B11: AS82505 sdAb (VHH)
VHH: QVQLAESGGGLVQPGGSLRLSCVASGFTFSSYDMSWVRQAPGKGVEWVSTINSGGGSTYYAESAKGRFTISRDNAKNTLYLQLNSLKTEDTAMYYCVKGFPDDDGPGELSREYNYWGQGTQVTVSS
notes: as for B1
B12: AS83183 sdAb (VHH)
VHH: QVHLVESGGGSVQSGGSLRLSCAASGYAYRSYCMGWFRQAPGKVLEGVAAIESDGTTTYADSVMGRFTISQDNAKNALYLQMNSLKPEDTAMYHCAAVKGSCDSASSDTPSYWGQGTQVTVSS
notes: as for B1
B13: AS83478 sdAb (VHH)
VHH: QVHLMESGGGLVQPGESLRLSCAASGFIFANYEMSWVRQAPGKVLEWVSGINSRGNATYYADSVKGRFTISRDNAEHTLYLQMNSLKPEDTAMYHCVVGGMTTDQGSPDFYWGQGTQVTVSS
notes: as for B1
B14: AS83180 sdAb (VHH)
VHH: QVQLVESGGGSVQAGGSLRLSCVVSAATNCRYIAWYRQAPGKAREFVSTLGSDGNTNYADSVKGRFTISQGNIKNMAYLEMNSLKPEDTGMYYCGTRCQIGDDWRSSDWAQGTQVTVSS
notes: as for B1
B15: AS83591 sdAb (VHH)
VHH: QVQLVESGGGLVQPGGSLRLSCAASGFLFSIYDMNWVRQAPGKGVEWIAGITNNEHTTAYADSVKGRFTISRDNTKNTLFLQMNSLKPEDTAMYYCQRDDGQVRGQGTQVTVSS
notes: as for B1

How the values were obtained:
human CLL1 ECD (65-265) = biological target: T1, human CLL1 ECD (65-265); assay: SPR (Biacore T200), sdAb supernatant, recombinant human CLL1
Method: (§1) The unique clones were grown in 2YT medium and induced by IPTG for sdAb expression in the supernatant. The supernatants of unique binders were analyzed for their ability to bind to a CLL1-expressing HKE293/huCLL-1 cell line and cancer cell line AML193 using a FACS assay. Affinities of selected binders in supernatants to recombinant human and cynomolgus monkey CLL1 proteins were determined by surface plasmon resonance (SPR) on a BIACORE® T200 instrument. The dissociation phase was used to calculate the kd values for each sdAb.

[1] = biological target: T2, cynomolgus monkey CLL1 ECD (65-265); assay: SPR (Biacore T200), sdAb supernatant, recombinant cynomolgus CLL1
Method: as §1

Binder	Kd (human CLL1 ECD (65-265)) [nM]	Kd [1] [nM]
B1	24	2.6
B2	31	19
B3	21	98
B4	8.4	3.2
B5	0.37	0.24
B6	0.44	0.22
B7	1.5	47
B8	8.6	39
B9	1.6	1.9
B10	7.3	0.63
B11	0.83	0.59
B12	1	0.26
B13	2	1.4
B14	3	2.4
B15	31	19

Source: patent publication US20210277126A1 (LEGEND BIOTECH IRELAND, published 2021)
